The values that follow come from PMC10255477, “The Inhibitory Effects and Cytotoxic Activities of the Stem Extract of Nepenthes miranda against Single-Stranded DNA-Binding Protein and Oral Carcinoma Cells”.

For series [1], the target named is T1, KpSSB (single-stranded DNA-binding protein) (Klebsiella pneumoniae, UniProt A6TGW7 1-174). The experiment in a line: EMSA; up to 5000 nM protein, no shift; EMSA: 40 mM Tris-HCl pH 7.5, 50 mM NaCl, 37 °C, 60 min; DNA 30 fmol/uL; 8% native PAGE in TBE; [Protein]50 by linear interpolation. Conditions: protein: recombinant, chain copies: 4. (A gel shift assay detects complexes by their altered migration in electrophoresis.)
T1 sequence (A6TGW7 whole entry): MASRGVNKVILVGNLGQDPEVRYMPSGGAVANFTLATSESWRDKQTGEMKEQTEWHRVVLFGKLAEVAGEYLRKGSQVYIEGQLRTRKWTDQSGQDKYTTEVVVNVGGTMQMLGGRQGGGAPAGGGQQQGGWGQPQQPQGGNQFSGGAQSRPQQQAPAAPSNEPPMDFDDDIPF

The target in series [2] is T1, KpSSB (single-stranded DNA-binding …). The experiment in a line: EMSA; EMSA: 40 mM Tris-HCl pH 7.5, 50 mM NaCl, 37 °C, 60 min; DNA 30 fmol/uL; 8% native PAGE in TBE; [Protein]50 by linear interpolation. The note with it: protein: recombinant; chain copies: 4; label: 5' biotin.

B1: PS4/PS3 (dsDNA)
DNA 1: GGGTACCGAGCTATCCGAATTCGGG
DNA 2: CCCGAATTCGGATAGCTCGGTACCC
In the case of B1, in series [1] (blunt, 25 bp), the binding result is “no binding”.

With TTTTTTTTTTTTTTTTTTTTTTTTTTTTTT (ssDNA) [dT30], in series [2], the “apparent K (half saturation)” value is 155 ± 20 nM.

Turning to TTTTTTTTTTTTTTTTTTTTTTTTTTTTTTTTTTT (ssDNA) [dT35], the “apparent K (half saturation)” value in series [2] worked out at 117 ± 18 nM.

On to TTTTTTTTTTTTTTTTTTTT (ssDNA) [dT20], for which, in series [1] (label: 5' biotin), the binding result is recorded as “no binding”.
